Source: patent publication EP3342782A1

Key:
[1] = molecular target: extracellular region of human V158 FcγRIIIa with C-terminal 6x His-tag and GST-tag (human) (UniProt P08637); assay: SPR; fold vs WT
[2] = molecular target: human FcγRIIIa on PBMCs expressing heterozygous V158/F158 FcγRIIIa (human) (UniProt P08637); assay: cell-based or functional assay

E258H alemtuzumab (antibody) showed a Fold WT [1] of 5.5 fold.

With E258Y alemtuzumab (antibody) the Fold WT [1] was 1.77 fold.

E272H alemtuzumab (antibody) showed a Fold WT [1] of 384 fold.

E283L alemtuzumab (antibody) gave a Fold WT [1] of 2.56 fold.

H268D alemtuzumab (antibody) was tested, and the Fold WT [1] was 5.66 fold.

With I332D alemtuzumab (antibody) the Fold WT [1] was 11.2 fold.

In the case of K246H alemtuzumab (antibody), the Fold WT [1] is reported as 22.4 fold.

K246Y alemtuzumab (antibody) gave a Fold WT [1] of 7.07 fold.

K326E alemtuzumab (antibody) was tested, and the Fold WT [1] was 3.13 fold.

Substance R255Y alemtuzumab (antibody) has a Fold WT [1] of 1.41 fold.

S239D/I332E alemtuzumab (antibody) was tested, and the ADCC log(EC50) [2] was 0.49 log(ng/ml).

For S239E alemtuzumab (antibody), the Fold WT [1] was 3.28 fold.

In the case of S267E alemtuzumab (antibody), the Fold WT [1] is reported as 2.62 fold.

Work on T260H alemtuzumab (antibody) yielded a Fold WT [1] of 1.86 fold.

For V264I/I332E alemtuzumab (antibody), the ADCC log(EC50) [2] was 0.6 log(ng/ml).
